Laboratory results reported in the supplement of paper PMC10065799, “High-throughput profiling of sequence recognition by tyrosine kinases and SH2 domains using bacterial peptide display” (eLife, 2023).

Columns and labels:
Grb2 SH2 = Grb2 SH2 (UniProt P62993); test: SH2 binding enrichment of the phosphorylated peptide, bacterial display (enrichment ratio); higher = better substrate or ligand; peptides without Tyr show the background
c-Src SH2 = test: as above
SHP2-C SH2 = test: as above
Fer (mouse) = test: phosphorylation enrichment, bacterial display (enrichment ratio); higher = better substrate or ligand; peptides without Tyr show the background
AncSZ = test: as above
Fes = Fes (UniProt P07332); test: as above
Sequence of Fes (P07332 whole entry, looked up): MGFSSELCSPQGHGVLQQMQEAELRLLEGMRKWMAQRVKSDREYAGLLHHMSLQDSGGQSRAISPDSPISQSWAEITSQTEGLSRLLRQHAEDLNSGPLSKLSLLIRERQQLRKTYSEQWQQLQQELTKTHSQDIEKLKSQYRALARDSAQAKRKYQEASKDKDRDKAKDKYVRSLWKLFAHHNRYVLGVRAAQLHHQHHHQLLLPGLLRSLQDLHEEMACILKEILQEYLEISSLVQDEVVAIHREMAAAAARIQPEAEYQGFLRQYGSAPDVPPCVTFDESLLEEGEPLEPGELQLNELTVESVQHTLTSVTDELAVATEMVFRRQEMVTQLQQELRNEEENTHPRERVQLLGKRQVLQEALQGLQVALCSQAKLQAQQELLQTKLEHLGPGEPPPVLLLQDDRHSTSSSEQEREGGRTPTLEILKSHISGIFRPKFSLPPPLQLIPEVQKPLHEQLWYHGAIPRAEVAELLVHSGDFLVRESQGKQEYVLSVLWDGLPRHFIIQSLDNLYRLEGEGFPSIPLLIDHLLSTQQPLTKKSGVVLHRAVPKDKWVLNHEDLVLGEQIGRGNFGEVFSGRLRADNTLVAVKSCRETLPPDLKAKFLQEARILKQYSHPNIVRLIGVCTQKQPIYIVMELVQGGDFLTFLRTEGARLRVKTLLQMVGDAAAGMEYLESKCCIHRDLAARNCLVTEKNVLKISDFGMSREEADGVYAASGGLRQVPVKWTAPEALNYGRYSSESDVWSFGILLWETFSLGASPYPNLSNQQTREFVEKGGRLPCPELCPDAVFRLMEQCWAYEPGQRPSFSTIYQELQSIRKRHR

Fyn = Fyn (UniProt P06241); test: as above
Sequence of Fyn (P06241 whole entry, looked up): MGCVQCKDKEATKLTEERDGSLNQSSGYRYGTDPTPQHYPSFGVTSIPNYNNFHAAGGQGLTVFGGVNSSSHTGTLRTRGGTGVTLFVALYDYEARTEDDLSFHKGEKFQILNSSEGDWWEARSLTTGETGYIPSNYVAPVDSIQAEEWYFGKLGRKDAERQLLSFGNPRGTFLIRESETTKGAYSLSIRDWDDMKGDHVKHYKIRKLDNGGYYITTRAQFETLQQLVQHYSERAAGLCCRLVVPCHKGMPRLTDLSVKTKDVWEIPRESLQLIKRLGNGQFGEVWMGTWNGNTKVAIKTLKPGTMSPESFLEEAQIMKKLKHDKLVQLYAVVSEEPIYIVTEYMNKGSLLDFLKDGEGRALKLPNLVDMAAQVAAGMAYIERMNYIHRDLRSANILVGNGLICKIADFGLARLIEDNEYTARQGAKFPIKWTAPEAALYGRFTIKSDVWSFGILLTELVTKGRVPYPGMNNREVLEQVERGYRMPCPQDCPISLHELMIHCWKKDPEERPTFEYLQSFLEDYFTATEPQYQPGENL

Jak2 = Jak2 (UniProt O60674); test: as above
EPHB2 = EPHB2 (UniProt P29323); test: as above
FGFR1 = FGFR1 (UniProt P11362); test: as above
c-Abl (mouse) = test: as above
Hck = Hck (UniProt P08631); test: as above
Sequence of Hck (P08631 whole entry, looked up): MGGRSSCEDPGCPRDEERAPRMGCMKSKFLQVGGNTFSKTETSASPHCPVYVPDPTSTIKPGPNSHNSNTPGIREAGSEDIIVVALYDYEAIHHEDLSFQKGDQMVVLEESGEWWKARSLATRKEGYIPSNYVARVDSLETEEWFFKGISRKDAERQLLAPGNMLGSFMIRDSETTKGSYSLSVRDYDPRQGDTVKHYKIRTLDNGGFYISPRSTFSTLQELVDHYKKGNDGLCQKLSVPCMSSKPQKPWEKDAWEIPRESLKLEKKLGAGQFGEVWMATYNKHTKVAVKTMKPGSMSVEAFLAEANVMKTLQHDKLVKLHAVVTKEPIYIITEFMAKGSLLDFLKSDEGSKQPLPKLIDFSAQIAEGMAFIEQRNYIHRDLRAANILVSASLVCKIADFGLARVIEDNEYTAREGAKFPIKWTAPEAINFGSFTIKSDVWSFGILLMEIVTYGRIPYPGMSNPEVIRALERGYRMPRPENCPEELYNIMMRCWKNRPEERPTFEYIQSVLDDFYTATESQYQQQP

c-Src = test: as above
EPHB1 = EPHB1 (UniProt P54762); test: as above
Sequence of EPHB1 (P54762 whole entry, looked up): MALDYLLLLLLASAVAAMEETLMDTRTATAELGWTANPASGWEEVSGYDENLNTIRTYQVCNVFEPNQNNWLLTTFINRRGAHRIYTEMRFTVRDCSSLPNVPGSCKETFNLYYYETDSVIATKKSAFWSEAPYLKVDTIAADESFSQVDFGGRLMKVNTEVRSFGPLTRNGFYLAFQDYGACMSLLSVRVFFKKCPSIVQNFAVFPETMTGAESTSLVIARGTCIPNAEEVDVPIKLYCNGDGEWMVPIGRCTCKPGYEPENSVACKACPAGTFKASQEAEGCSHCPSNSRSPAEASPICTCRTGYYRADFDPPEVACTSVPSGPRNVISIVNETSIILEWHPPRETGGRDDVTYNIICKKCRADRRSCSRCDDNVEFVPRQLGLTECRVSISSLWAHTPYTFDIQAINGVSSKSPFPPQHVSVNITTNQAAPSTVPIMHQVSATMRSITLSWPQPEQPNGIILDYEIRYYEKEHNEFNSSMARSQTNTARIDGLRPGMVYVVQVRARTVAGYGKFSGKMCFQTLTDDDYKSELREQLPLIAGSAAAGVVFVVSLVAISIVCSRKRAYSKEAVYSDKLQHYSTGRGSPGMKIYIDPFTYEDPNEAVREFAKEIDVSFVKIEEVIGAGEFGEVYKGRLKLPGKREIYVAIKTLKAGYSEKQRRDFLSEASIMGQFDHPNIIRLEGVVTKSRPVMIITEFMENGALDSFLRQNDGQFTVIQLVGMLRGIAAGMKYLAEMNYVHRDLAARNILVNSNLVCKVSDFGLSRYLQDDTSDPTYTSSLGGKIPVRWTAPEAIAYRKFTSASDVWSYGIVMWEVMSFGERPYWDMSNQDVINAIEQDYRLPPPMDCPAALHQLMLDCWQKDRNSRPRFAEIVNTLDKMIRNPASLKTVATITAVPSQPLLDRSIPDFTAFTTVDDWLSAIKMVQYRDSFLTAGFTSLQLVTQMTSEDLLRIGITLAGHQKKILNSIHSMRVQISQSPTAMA

MERTK = MERTK (UniProt Q12866); test: as above
Sequence of MERTK (Q12866 whole entry, looked up): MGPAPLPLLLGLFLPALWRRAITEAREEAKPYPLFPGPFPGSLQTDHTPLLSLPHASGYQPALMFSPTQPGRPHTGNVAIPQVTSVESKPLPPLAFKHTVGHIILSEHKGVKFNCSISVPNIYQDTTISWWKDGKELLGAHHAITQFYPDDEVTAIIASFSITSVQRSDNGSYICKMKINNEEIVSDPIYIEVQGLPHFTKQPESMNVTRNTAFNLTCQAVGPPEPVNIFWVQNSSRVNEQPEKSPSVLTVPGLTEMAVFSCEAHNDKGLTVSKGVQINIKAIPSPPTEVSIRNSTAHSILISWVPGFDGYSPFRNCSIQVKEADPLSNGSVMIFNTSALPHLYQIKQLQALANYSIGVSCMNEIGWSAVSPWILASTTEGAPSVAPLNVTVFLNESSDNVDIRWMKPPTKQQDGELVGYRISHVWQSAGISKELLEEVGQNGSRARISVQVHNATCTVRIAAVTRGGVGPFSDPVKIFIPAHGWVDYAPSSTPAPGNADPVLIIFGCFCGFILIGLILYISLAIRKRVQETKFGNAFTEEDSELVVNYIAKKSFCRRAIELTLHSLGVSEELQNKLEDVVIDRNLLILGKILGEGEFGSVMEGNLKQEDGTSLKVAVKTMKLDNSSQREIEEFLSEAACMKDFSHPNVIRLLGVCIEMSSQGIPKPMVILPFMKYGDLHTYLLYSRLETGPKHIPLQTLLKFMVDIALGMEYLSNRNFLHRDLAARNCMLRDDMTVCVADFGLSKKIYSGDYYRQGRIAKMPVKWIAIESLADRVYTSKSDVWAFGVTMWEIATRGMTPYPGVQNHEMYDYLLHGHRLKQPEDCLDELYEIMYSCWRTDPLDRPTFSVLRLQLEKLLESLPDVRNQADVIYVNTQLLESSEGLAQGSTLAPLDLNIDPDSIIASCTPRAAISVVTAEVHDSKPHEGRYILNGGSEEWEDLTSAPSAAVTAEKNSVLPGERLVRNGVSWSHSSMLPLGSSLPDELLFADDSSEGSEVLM

FGFR3 = FGFR3 (UniProt P22607); test: as above
Sequence of FGFR3 (P22607 whole entry, looked up, the tested form may be a part): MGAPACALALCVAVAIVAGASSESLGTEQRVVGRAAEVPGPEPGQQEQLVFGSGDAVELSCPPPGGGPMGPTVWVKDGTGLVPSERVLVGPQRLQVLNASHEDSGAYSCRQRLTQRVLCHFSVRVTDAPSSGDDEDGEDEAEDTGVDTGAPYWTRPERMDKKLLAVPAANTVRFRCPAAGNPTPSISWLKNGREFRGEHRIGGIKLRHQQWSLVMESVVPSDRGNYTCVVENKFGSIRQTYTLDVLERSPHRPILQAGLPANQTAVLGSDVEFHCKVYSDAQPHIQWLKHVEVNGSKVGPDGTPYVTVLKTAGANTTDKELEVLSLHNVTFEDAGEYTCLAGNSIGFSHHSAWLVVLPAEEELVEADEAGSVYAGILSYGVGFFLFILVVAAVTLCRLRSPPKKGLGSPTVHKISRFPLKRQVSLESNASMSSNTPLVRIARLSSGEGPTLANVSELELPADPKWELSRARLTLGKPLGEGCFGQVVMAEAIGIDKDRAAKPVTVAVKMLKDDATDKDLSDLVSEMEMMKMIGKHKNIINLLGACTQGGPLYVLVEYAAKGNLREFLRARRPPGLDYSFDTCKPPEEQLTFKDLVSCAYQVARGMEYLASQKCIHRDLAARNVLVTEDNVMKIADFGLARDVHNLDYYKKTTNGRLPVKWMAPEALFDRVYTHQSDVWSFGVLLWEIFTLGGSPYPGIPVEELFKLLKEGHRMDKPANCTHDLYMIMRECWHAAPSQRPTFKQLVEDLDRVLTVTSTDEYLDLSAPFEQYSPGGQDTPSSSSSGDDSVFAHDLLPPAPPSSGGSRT
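Throughout, for SH2 binding enrichment of the phosphorylated peptide, bacterial display: peptide library displayed on the E. coli surface as eCPX fusions, selected cells deep-sequenced, score is each peptide's frequency after selection divided by its frequency in the input.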
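Throughout, for phosphorylation enrichment, bacterial display: 11-residue human phosphosite peptides and single-mutation variants displayed on the E. coli surface, counted by deep sequencing, each peptide's frequency after selection divided by its frequency in the unselected input library; frequency after pTyr selection over input frequency; kinase dosed for 20-30% of maximal phosphorylation in three min.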

Sequence of Grb2 SH2 (P62993 whole entry, looked up): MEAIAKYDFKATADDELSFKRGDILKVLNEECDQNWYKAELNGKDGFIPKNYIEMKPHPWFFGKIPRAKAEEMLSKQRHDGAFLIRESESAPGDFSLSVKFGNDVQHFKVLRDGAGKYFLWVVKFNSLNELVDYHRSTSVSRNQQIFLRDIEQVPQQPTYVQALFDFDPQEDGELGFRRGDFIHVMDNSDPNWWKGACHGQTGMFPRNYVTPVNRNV

| Sequence | SH2 binding enrichment (Grb2 SH2) | SH2 binding enrichment (c-Src SH2) | SH2 binding enrichment (SHP2-C SH2) | phosphorylation enrichment (Fer (mouse)) | phosphorylation enrichment (AncSZ) | phosphorylation enrichment (Fes) | phosphorylation enrichment (Fyn) | phosphorylation enrichment (Jak2) | phosphorylation enrichment (EPHB2) | phosphorylation enrichment (FGFR1) | phosphorylation enrichment (c-Abl (mouse)) | phosphorylation enrichment (Hck) | phosphorylation enrichment (c-Src) | phosphorylation enrichment (EPHB1) | phosphorylation enrichment (MERTK) | phosphorylation enrichment (FGFR3) |
| --- | --- | --- | --- | --- | --- | --- | --- | --- | --- | --- | --- | --- | --- | --- | --- | --- |
| HEGKIYEFNQV [ZNF665_Y162_YF] | 0.82 | 0.371 | 0.633 | 22.6 | 0.796 | 0.975 | 6.98 | 0.468 | 1.17 | 0.665 | 1.6 | 1.64 | 4.38 | 0.883 | 4.13 | 0.929 |
| HFNLTYRILSF [MMP23B_Y95] | 0.586 | 0.326 | 0.587 | 0.726 | 1.6 | 1.8 | 0.391 | 1.8 | 0.615 | 0.486 | 1.47 | 0.644 | 0.636 | 0.826 | 0.481 | 1.19 |
| HFVDEYDPTIE [KRAS_Y32] | 0.786 | 0.575 | 0.666 | 0.886 | 1.74 | 1.79 | 0.605 | 1.54 | 0.99 | 0.884 | 1.33 | 0.828 | 0.779 | 0.784 | 0.724 | 0.888 |
| HFVDEYDPTME [KRAS_Y32_I36M] | 0.802 | 0.717 | 0.448 | 1.11 | 1.5 | 1.49 | 0.614 | 1.33 | 0.437 | 0.424 | 1.31 | 0.702 | 0.634 | 0.727 | 0.66 | 0.633 |
| HKANEYFPVVI [ADAMTS18_Y764_L769I_YF] | 0.767 | 0.485 | 0.86 | 0.874 | 1.35 | 0.973 | 0.594 | 2.38 | 0.806 | 11.8 | 1.01 | 0.569 | 0.625 | 0.762 | 0.663 | 5.96 |
| HKLSFNEFDFE [BTK_Y40_Y40N_YF] | 0.789 | 0.471 | 0.456 | 0.788 | 1.61 | 1.58 | 0.834 | 1.53 | 0.859 | 0.795 | 1.02 | 0.918 | 0.864 | 0.829 | 0.712 | 0.882 |
| HKLSFYEFDFE [BTK_Y40_YF] | 0.911 | 3.27 | 0.846 | 0.919 | 1.73 | 1.73 | 1.66 | 2.92 | 0.786 | 1.01 | 1.51 | 0.989 | 1.24 | 0.752 | 1.75 | 1.36 |
| HLDRSYSYSYS [PEAR1_Y890_R885H] | 0.889 | 1.53 | 1.2 | 0.401 | 0.718 | 0.583 | 0.424 | 1.02 | 0.477 | 0.558 | 0.49 | 0.424 | 0.474 | 0.603 | 0.583 | 0.66 |
| HLNLTYRILSF [MMP23B_Y95_F91L] | 1.03 | 0.474 | 0.624 | 0.605 | 1.43 | 1.68 | 0.694 | 1.51 | 0.664 | 0.645 | 1.08 | 0.54 | 0.491 | 0.673 | 0.42 | 1.27 |
| HQIQSYTCEID [DES_Y331] | 0.951 | 0.774 | 0.786 | 0.349 | 0.927 | 1.27 | 0.628 | 1.44 | 0.802 | 0.822 | 0.767 | 0.675 | 0.502 | 0.7 | 0.595 | 0.882 |
| HTLMKYTDGDQ [PUS7L_Y94_I92M] | 0.794 | 0.563 | 0.757 | 0.666 | 1.34 | 1.48 | 0.595 | 1.26 | 0.634 | 0.813 | 1.08 | 0.682 | 0.788 | 1.17 | 0.463 | 0.897 |
| HYEDGYPGGSD [CTNND1_Y221] | 0.915 | 0.924 | 0.786 | 0.908 | 1.75 | 1.28 | 0.799 | 1.44 | 0.762 | 0.819 | 1.12 | 0.629 | 1.13 | 0.796 | 0.852 | 0.945 |
| IAAEFYDNLPH [DEGS1_Y284_YF] | 0.774 | 0.77 | 0.697 | 1.12 | 0.894 | 0.79 | 0.72 | 0.559 | 0.68 | 0.66 | 0.535 | 3.88 | 0.723 | 0.531 | 0.687 | 0.682 |
| IDQDKYAVRFI [FLNA_Y2388] | 0.865 | 0.54 | 0.696 | 0.473 | 0.78 | 0.787 | 0.488 | 0.635 | 0.458 | 0.425 | 0.566 | 0.524 | 0.393 | 0.459 | 0.379 | 0.545 |
| IEDPYYGNDFD [ACP1_Y133_S137F] | 0.863 | 0.68 | 0.617 | 0.786 | 1.65 | 1.47 | 1.65 | 1.43 | 0.859 | 1.6 | 0.93 | 1.02 | 2.94 | 0.832 | 0.513 | 1.7 |
| IETGKYEILTE | 0.746 | 10.6 | 0.609 | 0.703 | 1.18 | 1.34 | 0.429 | 1.14 | 0.601 | 0.519 | 0.807 | 0.478 | 0.495 | 0.684 | 0.585 | 0.78 |
